Measured values from US20230331869A1.

Columns and labels:
Assay in all cases: fibrinogen 15mer peptide array
FIBG 287-301 = biological target: T1, FIBG 287-301
T1 sequence (peptide): GDAFDGFDFGDDPSD

FIBG 335-349 = biological target: T2, FIBG 335-349
T2 sequence (peptide): WMNKCHAGHLNGVYY

FIBA 218-232 = biological target: T3, FIBA 218-232
T3 sequence (peptide): FKSQLQKVPPEWKAL

FIBG 15-29 = biological target: T4, FIBG 15-29
T4 sequence (peptide): FGSYCPTTCGIADFL

FIBG 214-228 = biological target: T5, FIBG 214-228
T5 sequence (peptide): FGHLSPTGTTEFWLG

FIBA 507-521 = biological target: T6, FIBA 507-521
T6 sequence (peptide): FPGFFSPMLGEFVSE

FIBA 514 528 = biological target: T7, FIBA 514 528
T7 sequence (peptide): FSPMLGEFVSETESR

FIBG 303-317 = biological target: T8, FIBG 303-317
T8 sequence (peptide): FFTSHNGMQFSTWDN

FIBG 202-216 = biological target: T9, FIBG 202-216
T9 sequence (peptide): DFKKNWIQYKEGFGH

FIBA 602-616 = biological target: T10, FIBA 602-616
T10 sequence (peptide): RGHAKSRPVRGIHTS

FIBG 206-220 = biological target: T11, FIBG 206-220
T11 sequence (peptide): NWIQYKEGFGHLSPT

FIBG 123-137 = biological target: T12, FIBG 123-137
T12 sequence (peptide): NLKEKVAQLEAQCQE

FIBG 7-21 = biological target: T13, FIBG 7-21
T13 sequence (peptide): NCCILDERFGSYCPT

[1] = substrate: T14, FIBB 407-421
T14 sequence (peptide): CHAANPNGRYYWGGQ

[2] = substrate: T15, FIBB 107-121
T15 sequence (peptide): VSQTSSSSFQYMYLL

[3] = substrate: T16, FIBB 427-431
T16 sequence (peptide): AKHGTDDGVVWMNWK

[4] = substrate: T17, FIBB 391-405
T17 sequence (peptide): RKQCSKEDGGGWWYN

[5] = substrate: T18, FIBB 235-249
T18 sequence (peptide): PYRVYCDMNTENGGW

[6] = substrate: T19, FIBB 71-85
T19 sequence (peptide): DLGVLCPTGCQLQEA

[7] = substrate: T20, FIBB 63-77
T20 sequence (peptide): GGCLHADPDLGVLCP

[8] = substrate: T21, FIBB 415-429
T21 sequence (peptide): RYYWGGQYTWDMAKH

[9] = substrate: T22, FIBB 283-297
T22 sequence (peptide): KNYCGLPGEYWLGND

[10] = substrate: T23, FIBB 139-153
T23 sequence (peptide): VNEYSSELEKHQLYI

[11] = substrate: T24, FIBB 258-262
T24 sequence (peptide): SVDFGRKWDPYKQGF

[12] = substrate: T25, FIBB 319-333
T25 sequence (peptide): GDKVKAHYGGFTVQN

[13] = substrate: T26, FIBB 315-329
T26 sequence (peptide): EDWKGDKVKAHYGGF

[14] = substrate: T27, FIBB 395-409
T27 sequence (peptide): SKEDGGGWWYNRCHA

[15] = substrate: T28, FIBB 191-205
T28 sequence (peptide): EYCRTPCTVSCNIPV

B1: antibody G or 45-C1C3 antibody (antibody, V domains shown)
VH: EVQLVESGGGAVQPGRSLRLSCAASGVSFSNIGMHWVRQAPGKGLEWVALISSDGRHTHYADSVKGRFTISRDNSENTLYLQINGLRADDTAVYYCAKGLDTRARYMGKFYTFDYWGQGTLVTVSS
VL: DIQLTQSPSSLSASVGDRVTITCRASQNIGVNLNWYQQRPGKGPKLLVSSTFSLQSGVPSRFSASGAGTNFTLTISSLQPEDYVTYYCQQSYSSPFTFGPGTKVDIK
FIBG 287-301
  signal intensity (RLU): 11400 RLU
FIBG 335-349
  signal intensity (RLU): 50000 RLU
FIBA 218-232
  signal intensity (RLU): 6880 RLU
FIBG 15-29
  signal intensity (RLU): 3150 RLU
FIBG 214-228
  signal intensity (RLU): 8260 RLU
FIBA 507-521
  signal intensity (RLU): 3370 RLU
FIBA 514 528
  signal intensity (RLU): 5030 RLU
FIBG 303-317
  signal intensity (RLU): 6750 RLU
FIBG 202-216
  signal intensity (RLU): 9080 RLU
FIBA 602-616
  signal intensity (RLU): 2570 RLU
FIBG 206-220
  signal intensity (RLU): 6580 RLU
FIBG 123-137
  signal intensity (RLU): 3130 RLU
FIBG 7-21
  signal intensity (RLU): 5760 RLU
[1]
  signal intensity (RLU): 9200 RLU
[2]
  signal intensity (RLU): 2930 RLU
[3]
  signal intensity (RLU): 2640 RLU
[4]
  signal intensity (RLU): 2980 RLU
[5]
  signal intensity (RLU): 3610 RLU
[6]
  signal intensity (RLU): 2550 RLU
[7]
  signal intensity (RLU): 2780 RLU
[8]
  signal intensity (RLU): 12900 RLU
[9]
  signal intensity (RLU): 8780 RLU
[10]
  signal intensity (RLU): 6790 RLU
[11]
  signal intensity (RLU): 6910 RLU
[12]
  signal intensity (RLU): 2670 RLU
[13]
  signal intensity (RLU): 5070 RLU
[14]
  signal intensity (RLU): 3470 RLU
[15]
  signal intensity (RLU): 2790 RLU
